From the nanobody polyreactivity screen of Harvey et al. (2022)

Test: yeast display, Sf9 membrane polyspecificity reagent, FACS + sequencing; frameworks hold sequencing errors
In short: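 Galactose induction of a Saccharomyces cerevisiae BJ5465 synthetic nanobody display library ran 36–48 hours. The cells were then stained for 1 hour at 4 °C with 10% biotinylated, detergent-solubilized Sf9 membrane reagent, pulled down on streptavidin microbeads and FACS-sorted into low and high (top ~1%) gates on expression and reagent-binding fluorescence. Labels for polyreactivity follow the gate of origin.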

Row | Sequence | polyreactivity (PSR sort gate)
1 | QVQLVESGGGLVQAGGSLRLSCAASGRTFQKNTMGWYRQARGKEMQLVAAIDFSATTTYYADSVKGRFTISRDNAKNTVYLQMNSLKPEATAVYYCAARWSYPRWELDYWGQGTQVTVSS | high polyreactivity
2 | QVQLVESGGGLVQAGGSLRLSCAASGRTFRIYAMGWYRQAPGKERELVAAINSGGTTNYADSVKGRFTISRDNAKNTVYLQMISLKPEDTAVYYCAVRYWKTLSHFSYDYWGQGTQVTVSS | low polyreactivity
3 | QVQLVESGGGLVQAGGSLRLSCAASGRTFYYYAMGWYRQAPGKERELVATITKSSGSTSYADSVKGRFTISRDNAKNTVYLQMNSLKPEDTAVYYCAKVFRSGGVYRYDYWGQGTQVTVSS | high polyreactivity
4 | QVKLVETGGGLVQAGGSLRLSCAASGITFAYYAMGWYRQAPGKERELVARISRRGGSTYYADSVKGRFTISRDNAKNNVYLQMNSLKPEDTAVYYCAARVVVPKPYVDGDYWGEGTQVTVSS | high polyreactivity
5 | QVQLVESGGGLVQAGGSLRLSFAASGRTFGRYAMGWYRPATGKERELVATISSRGGNTYYADSVKGRFTISRDNAQKTVYLEMNSLKAEDTAVYYCAAQTYKWYDWGQGTQVTVSS | high polyreactivity
6 | QVQLVESGRGLVQAGGSLRLSCASSGTILERYVMGWYRQAPGKERELVAAITISRGSTYYADSVKGRFTISRDNAKNTVYLEMTRLKPEDTAVYYCAARNRYWGQGTKVTVSS | high polyreactivity
7 | QVQLVESGGGLVQAGGSLRLSCAASGSILGIYGMGWYRQSRGKERELVAAISYSGGSTYYADSVKGRFSISRDNAKNTVYLQMNSLKPEDTAVYYCAADLTRGVSYYVDFYYWGQGTQVTVSS | low polyreactivity
8 | QDQLVDSGGGLVQAGGSLRLSCAATGRSFRRYFMGWYIPAPGKERELVAAISYSGATTYYADSVKGRFTISRDYAKNNVYLQMNSLKKEDTAVYYFAATAPGDRYYWGQGTQVTVSS | high polyreactivity
9 | QDQLVESGGGLVQAGGSLRLSCASSGSIITQYAMGWYRQAPGKERELVAAITSGGSPYADSVKGRFTISRDNAKNTVYLQMNSLKPEDTADYYCATPYSYRGVTFNYWGQGTQVTVSS | low polyreactivity
10 | QVQLVESGGGLVQAGGSLRLSCAASGSIFVRNAMGWYRQAPGKEREFVAIRFSGATTYYADSVKGRFTISRDNAKNTVYLQMNSLKPEDTAVYYCAAVARTYGRTSYYWGQGTQVTVSS | high polyreactivity
11 | QVQLVESGGGLVQAGGSLRLSCAATGRTFVTYAMGWYRQAPGKEREFVAAITWSTGTSTYYADSVKGRFTISRDNAKNTVFLQIHSLNQEDTAVDYCHADSQEWIWLYEGYDYWGQGTQVSVSS | low polyreactivity
12 | QVQLVESGGGLVQAGGSLRLSCAASGSTFLYNALGWYRPAPGKEREFVAAISGSGGTTYYADSVKGRFTISRDNAKNTVYLQMNSLKPEDTAVYYCAVSQSWYWYYASDYWGQGTQVTVSS | low polyreactivity
13 | QVQLVESGGGLVQAGGSLRLSCAAYGSIFVLNAMGWYRQAPGKERQLVAAITNVGSTYYADSVKGRFTISRDNAKNTVYLQMNSLKPEDTAVYYCNADPGEVLVGYDYWGQGTQVSVSS | low polyreactivity
14 | QVQLVESGGGLVQAGGSLRLSCAASGRTFGRNAMGWYRQAPGKEREFVAAISYRGGSTYYADSVKGRFTISRDNAKNTVYLQMNSLKPEDTAVYYCAVRFSAPGYYYWGQGTQVTVSS | high polyreactivity
15 | QVQIVESGGVLVQAGGSLRLSCAASGITLRVYVMGWYRQAPGKERELVAAITSRGDRTYYADSVKGRSTISRDNAKNTVYLQMNSLKPEDTAVYDCAARYYSYPPGLSQTRLTYYYWGQGTQVTVSS | high polyreactivity
16 | QVQLVESGGGLVQAGGSLRLSCAASGRNLGYNAMGWYRQAPGKERELVAAISWSGGSTYYADSVKGRFTISRDNAKNTVYLQMNSLKPEDTAVYYCAARNNRYPLYNYWGQGTQVTVSS | low polyreactivity
17 | QVQLVESGGGLVQAGGSLRLSCAASGITFNSNAMGWYRQAPGKERELVATISNGGSTNYADSVKGRFTISRDNAKNTVYLQMNSLKPEDTAVYDCNTRRGSLSGLYVYSIQGYDYWGQGTQVTVSS | low polyreactivity
18 | QVQLVESVGGLVQAGGSLRLSCAASGFIFKSYSMGWYRQAPGKERELVAAISGRGGSTYYADSVKGRFTISRDNAKNTVYLQMNSLKPEDTAVYYCNVVPSTYYQYDYWGQGTQVTVSS | high polyreactivity
19 | QVQLVESVGGLVQAGGSLRLSCAASGRIFGSNAMGWYRPAPGKERELVAAISLSGTSTYYADSVKGRFTISRDNAKNTVYLQMNSLKPEDTAVYYCAAGLPGGTYFWGQGTQVTVSS | high polyreactivity
20 | QVQLVESGGGLVQAGGSLRLSCDASGRILKYYDMGWYRQAPGKERELVAAISVSGTSTYYADSVKGRFTISRDNAKNTVYLQMNSLKPEDTAVYYCATATGRYSFDYWGQGTQVTVSS | low polyreactivity
21 | QDQLVESGGGLVQAGGSLRLSCAPSGRTFGGYSMGWYRQAPGKERELVASNTSGGSTYYADSVKGRFTISRDNAKNTVYLQMNSLKPEDTAVYYCAAVTYFETSSRAIPSNDYWGQGTQVTVSS | low polyreactivity
22 | QVQLVESGGGLVQAGGSLRLSCAASGRTFRYYAMGWYRQAPGKERELVADISWSGGRTSYADSVKGRFTISRDNAKNTVYLQMNSLKPEDTAVYYCAKVLYYPSHVYWGQGTQVTVSS | high polyreactivity

Row | Sequence | polyreactivity (PSR sort gate)
23 | QVQLVESGGGLVQAGGSLRLSCAASGIIFVKNAMGWYRPAPGKERELVAAISDNADSTYYADSVKGRFTISRDNAKNTVYLQMNSLKPEDTAVYYCAADWVHRTWLFWYTKYDYWGQGTQVTVSS | low polyreactivity
24 | QVQLVESGGGLVQAVGSLRLSCADSGRIFYGYDMGWYRQAPGKERELVAAITWRGGTFYADSVKGRFTISRDNEKKTVYLQMNSLKPEDTAVYYCSARVSSYGRYDYWGQGTQVTVSS | high polyreactivity
25 | QVQLVESGAGLVQAGGSLRLSCAASGSILDEYAMGWYRQPPGKERELVAAISSSGTSTYYADSVKGRFTISRDNAKNTVYLQMNSLKPEDTAVYYCARVKQHTSHRVPGDDYWGQGTQLTVSS | low polyreactivity
26 | QVQLVESGGGEVQAGGSLRLSCAASGIIFVDYVLGWYRQAPGTEMELVASIDGSGGSTNDADSVKGRFTISRDNAKNTVYLQLNRLKPEDTAVYYCTADNILYWSTLDYWGQGTHVTVSS | low polyreactivity
27 | QVQLVESGGGLVQAGGSLRLSCAASGFNFEENAMGWYRQAPGKERELVAAINWSGGNTYYADSVKGRFTISRDNAKNTVYLQMNSLKPEDTAVYYCAAEYRSWSWRMDYWGQGTQVTVSS | high polyreactivity
28 | QVQLVESGGGLDQAGGSLRLSCAASGNIFYTNAMGWYRQEPGKAREFVAAISGSGGRTYYADSVKGRFTMSRDNAKNTFYLQMNSLKPEDTEVYYCNAVRRDYYDRNYGYWGQGTQVSVSS | low polyreactivity
29 | QVQLVESGGGLDQAGGSLRLSCAASGFTFYRNAMGWYRQAPGKERELVAAITSGGSTYYADSVKGRFTISRDNAKNTVYLQMNSLKPEDTAVYYCAAYVWSGWGHWFYYWGQGTQVTVSS | high polyreactivity
30 | QVQLVESGGGLVQAGGSLRLSCAASGSTFRGNAMGWYRPAPGKERELVASITGGGSTNYADSVKGRFTISRDNAKNTVYVPMNSLKPEDTAGYYCAADWGADFYWGQGTQVTVSS | low polyreactivity
31 | QVQLQESGGGLVQAGGSLRLSCAESGTIFRISDMGSYRQAPGKEREFVASITYGANTYYADSGKGRFTISRDNAKNTVYLQMNSLKPEDTAVYYCAVPPVKETILDYWGQGTQVTVCS | low polyreactivity
32 | QVQLVESGGGLVQAGGSLRLSCAASGSTFAYYAMVWYRQAPGKERELVAAISTIAGRTYYADSVKGRFTISRDNAKNTVYLQMNSLKPEDTAVYYCAVQFLYVVTLYSDYDYWGQGTQVTVSS | high polyreactivity
33 | QVQLIESGGGLVQAGGSLRLSCAASGSTLGLYDMGWYRQAPGKERELVAAISTGSGSTYYADSVKGRFTISRDNAKYTVYLLMISLKPEDTAVYYCNTDAWYSPIWFWVDSWGQGTQVTVSS | low polyreactivity
34 | QVQLVESGGGLVQAGGSLRLSCAASGSIFGLNAMGWYRPAHGKETELVAAISGGSTNYADSVKGRFTISRDNAKNTVYLQMNSLKTDDTAVYYCAARARRRYYYWGQGTQVTVSS | high polyreactivity
35 | QVQHAESGGGLVQAGGSLRLSCAASGSTSAKNVMGWYRQAPGKVRELVAAISRSGGRTYYADSVKGRFTISRDNAKNTVYLQMNSLNPEDTAVYYCAARSATNHADDYYYWGQGTQVTVSS | high polyreactivity
36 | QVQLVESGGGLVQAGGSLRLSCAASGRTFGQNTMGWYRQAPGKERELVATITSDGGDTYYADSVKGRFTISRDNAKNTVYLQMNSLKPEDTAVYYCKADYAGPKYVGYTFRSFTMDYWGQGTQVTVSS | low polyreactivity
37 | QLQLVESGGGLVQAGGSLRLSCAASGSIFTWYAMGWYRQAPGKERELVAAITRGGSTYADSVKGRFTISRDNAKNTVNLQMNSLKPEDTAVYYCNAVYGVYDFNYWGQGTQVTGSS | low polyreactivity
38 | QVQLVESGGGLVQAGGSLRLSCAASGSNFRYYAMGWYSPAPGKERELVAAISQSGGSTYSADSVKGRFTISRDNAKTTVYLQMNSLKPEDTAVYYCAARRVDTRGHVRYRYYYWGQGTQVTVSS | high polyreactivity
39 | QVQLVESGGGLVQAGGSLRLSCAASGFIFSVNAMGWYRQAPGKERELVAAISTNTGRTYYADSVKGRFTISRDNAKNTVYLQMNSLKPEDTAVYYCAADGPTYWAVRGDYWGQGTQVTVSS | low polyreactivity
40 | QVQLVESGGGLVQAGGSLRLSCAASGFTFRYYAMVWYRQAPGKERELVAAITSGDSTYYADSVKGLFTISRDNAKNTVYLQMNSLKPEDTAVYYCAAYSWLFEGYEYWGQGTIVTVSS | high polyreactivity
41 | QVQHVESGGGLVQAGGSLRISCAPSGRTFFPNAMGCYRQAPGKEREFVAAITKTDDSTYYADSVKGRFTISRDNAKNTVYLPMNSLKPEDTAVYYCNAGDTQIRFYYWGQGTQETVSS | low polyreactivity
42 | QVQLVESGGGLVQAGGSLRLSCAASGYTFEDNAMGWYRQAPGKERELVAAIDWSGDSTYYADSVKGRFTISRDNAKNTVYLQMNSLKPEDTAVYYCSADYTTWTDMDYWGQGTQVTVSS | low polyreactivity
43 | QVQLVESGGGLVQAGGSLRISCAASGFTFSYYAMGWYRQAPGKERDLVAAISGRTGRTYYADSVKGRFTISRDNAKNTVYLQMNSLKPEDTAVYYCAAGYTFSRYDDDYWGQGTQVTVSW | low polyreactivity
